From patent US20050282743A1, “Molecular interactions in cells” (Arbor Vita Corporation, priority 2001, published 2005) come the findings set out here.

Assay in all cases: G' assay
Assay [1] has as its target T1, GST-KIAA0807(S) PDZ domain 1 (Homo sapiens (Human)), Q6P0Q8.
T1 chain: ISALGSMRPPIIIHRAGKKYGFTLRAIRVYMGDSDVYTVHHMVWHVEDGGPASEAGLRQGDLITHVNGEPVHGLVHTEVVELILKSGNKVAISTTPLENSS

In assay [2] the target is T2, GST-AIPC PDZ domain 1 (Homo sapiens (Human)), O15018.
T2 chain: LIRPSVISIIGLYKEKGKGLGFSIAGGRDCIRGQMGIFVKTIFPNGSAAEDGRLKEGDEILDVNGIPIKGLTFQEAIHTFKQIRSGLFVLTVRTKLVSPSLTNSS

Assay [3] deals with T3, GST-MINT1 PDZ domains 1, 2, Q02410.
T3 chain: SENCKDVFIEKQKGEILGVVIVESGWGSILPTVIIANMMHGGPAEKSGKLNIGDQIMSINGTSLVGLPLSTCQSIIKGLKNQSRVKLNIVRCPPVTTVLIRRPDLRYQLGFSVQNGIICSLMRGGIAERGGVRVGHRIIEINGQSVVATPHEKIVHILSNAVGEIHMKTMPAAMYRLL

For assay [4], the target named is GST-KIAA807 [GST: P08515].
Assay [5] deals with T4, GST-MUPP1 PDZ domain 10 (Homo sapiens (Human)), O75970.
T4 chain: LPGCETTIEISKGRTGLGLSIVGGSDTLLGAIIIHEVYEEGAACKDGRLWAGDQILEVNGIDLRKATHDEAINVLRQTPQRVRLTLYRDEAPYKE

Assay [6] has as its target T5, GST-INADL PDZ domain 8 (Homo sapiens (Human)), Q8NI35.
T5 chain: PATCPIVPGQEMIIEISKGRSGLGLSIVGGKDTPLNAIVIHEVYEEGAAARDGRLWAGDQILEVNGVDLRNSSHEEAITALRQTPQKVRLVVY

Assay [7] concerns the target T6, GST-APXL-1 PDZ domain 1 (Homo sapiens (Human)), Q13796.
T6 chain: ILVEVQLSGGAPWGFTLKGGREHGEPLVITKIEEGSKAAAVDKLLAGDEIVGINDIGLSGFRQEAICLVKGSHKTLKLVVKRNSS

In assay [8] the target is T7, GST-MINT1 PDZ domain 2 (Mus musculus (Mouse)), B2RUJ5.
T7 chain: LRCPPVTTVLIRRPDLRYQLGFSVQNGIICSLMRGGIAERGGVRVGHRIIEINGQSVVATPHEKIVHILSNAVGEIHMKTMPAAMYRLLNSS

In assay [9] the target is GST-DLG1 PDZ domains 1, 2 (Homo sapiens), Q12959.
Assay [10] deals with GST-KIAA1634 PDZ domain 1 (Homo sapiens (Human)), Q5TCQ9.
Assay [11] addresses T8, GST-Shank 1 PDZ domain 1 (Homo sapiens (Human)), Q9UPX8.
T8 chain: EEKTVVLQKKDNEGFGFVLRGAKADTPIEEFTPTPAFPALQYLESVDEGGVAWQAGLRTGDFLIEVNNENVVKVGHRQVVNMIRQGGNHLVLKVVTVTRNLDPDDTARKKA

The target in assay [12] is T9, GST-KIAA0382 PDZ domain 1 (Canis lupus familiaris (Dog) (Canis familiaris)), A0A8I3.
T9 chain: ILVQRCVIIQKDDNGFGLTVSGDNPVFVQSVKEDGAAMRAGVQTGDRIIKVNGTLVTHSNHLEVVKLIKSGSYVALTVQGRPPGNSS

In assay [13] the target is T10, GST-PTPL1 PDZ domain 2 (Homo sapiens (Human)), Q12923.
T10 chain: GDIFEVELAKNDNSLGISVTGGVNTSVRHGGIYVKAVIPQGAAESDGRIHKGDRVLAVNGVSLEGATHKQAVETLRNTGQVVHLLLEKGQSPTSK

Assay [14] concerns the target T11, GST-KIAA1634 PDZ domain 2 (Homo sapiens (Human)), Q5TCQ9.
T11 chain: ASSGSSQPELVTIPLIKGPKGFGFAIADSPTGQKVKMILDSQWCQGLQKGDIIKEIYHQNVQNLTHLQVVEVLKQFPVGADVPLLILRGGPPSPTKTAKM

The target in assay [15] is GST-KIAA0147 PDZ domain 1 (Homo sapiens (Human)), Q14160.
Assay [16] has as its target GST-PAR3 PDZ domain 3 (Homo sapiens (Human)), Q8TEW0.
For assay [17], the target named is T12, GST-KIAA1526 PDZ domain 1 (Homo sapiens (Human)), Q9P202.
T12 chain: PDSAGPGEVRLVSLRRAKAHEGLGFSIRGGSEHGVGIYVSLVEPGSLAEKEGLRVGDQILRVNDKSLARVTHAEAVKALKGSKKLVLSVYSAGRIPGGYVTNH

Assay [18] concerns the target T13, GST-NeDLG PDZ domains 1, 2, Q92796.
T13 chain: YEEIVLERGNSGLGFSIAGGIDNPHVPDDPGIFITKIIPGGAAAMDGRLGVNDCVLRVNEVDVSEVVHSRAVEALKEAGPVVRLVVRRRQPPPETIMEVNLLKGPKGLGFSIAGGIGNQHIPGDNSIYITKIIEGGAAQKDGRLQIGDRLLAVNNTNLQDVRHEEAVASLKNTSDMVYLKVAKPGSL

In assay [19] the target is GST-PSD95 PDZ domains 1, 2, 3 (Homo sapiens), P78352.
Assay [20] deals with GST-BAI-1 Associated Protein PDZ domain 2 (Mus musculus (Mouse)), Q6RHR9.
Assay [21] deals with T14, GST-TIP1 PDZ domain 1 (Table 9 insert) (Homo sapiens (Human)), O14907.
T14 chain: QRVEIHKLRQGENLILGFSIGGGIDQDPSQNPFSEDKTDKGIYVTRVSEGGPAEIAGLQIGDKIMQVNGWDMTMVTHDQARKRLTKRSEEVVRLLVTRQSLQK

The target of assay [22] is T15, GST-DLG1 PDZ domain 2 (Homo sapiens), Q12959.
T15 chain: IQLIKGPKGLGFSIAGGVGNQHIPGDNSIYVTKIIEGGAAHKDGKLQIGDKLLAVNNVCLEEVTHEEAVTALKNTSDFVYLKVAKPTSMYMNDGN

For assay [23], the target named is T16, GST-PTPL1 PDZ domain 4 (Homo sapiens (Human)), Q12923.
T16 chain: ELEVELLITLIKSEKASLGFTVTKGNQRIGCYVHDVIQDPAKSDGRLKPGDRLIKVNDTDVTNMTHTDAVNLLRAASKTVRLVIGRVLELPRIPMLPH

Assay [24] addresses T17, GST-KIAA0973 PDZ domain 1 (Homo sapiens (Human)), Q9Y2H9.
T17 chain: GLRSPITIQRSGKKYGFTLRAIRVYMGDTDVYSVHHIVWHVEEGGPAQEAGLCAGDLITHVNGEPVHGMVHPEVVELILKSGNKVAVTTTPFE
Also: key of the grades not given here.

Sequence of GST-KIAA807 [GST: P08515] (P08515 whole entry, the tested form may be a part): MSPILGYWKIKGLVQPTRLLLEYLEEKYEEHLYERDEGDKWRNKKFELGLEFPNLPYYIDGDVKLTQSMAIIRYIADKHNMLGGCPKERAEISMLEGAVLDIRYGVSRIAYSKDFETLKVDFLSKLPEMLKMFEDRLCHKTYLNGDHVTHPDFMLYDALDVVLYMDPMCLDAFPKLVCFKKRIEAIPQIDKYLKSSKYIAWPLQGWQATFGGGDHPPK
Sequence of GST-PAR3 PDZ domain 3 (Homo sapiens (Human)), Q8TEW0 (Q8TEW0 579-681): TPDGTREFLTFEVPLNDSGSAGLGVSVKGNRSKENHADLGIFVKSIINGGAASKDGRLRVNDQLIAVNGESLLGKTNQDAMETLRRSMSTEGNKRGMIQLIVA
Sequence of GST-KIAA1634 PDZ domain 1 (Homo sapiens (Human)), Q5TCQ9 (Q5TCQ9 401-502): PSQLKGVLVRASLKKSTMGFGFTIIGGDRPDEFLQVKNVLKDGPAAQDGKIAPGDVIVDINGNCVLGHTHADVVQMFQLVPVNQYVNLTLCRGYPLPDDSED
Sequence of GST-BAI-1 Associated Protein PDZ domain 2 (Mus musculus (Mouse)), Q6RHR9 (Q6RHR9 455-558): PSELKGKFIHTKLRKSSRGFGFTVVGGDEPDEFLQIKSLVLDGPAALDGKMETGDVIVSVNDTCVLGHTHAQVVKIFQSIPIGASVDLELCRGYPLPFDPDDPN
Sequence of GST-PSD95 PDZ domains 1, 2, 3 (Homo sapiens), P78352 (P78352 62-395): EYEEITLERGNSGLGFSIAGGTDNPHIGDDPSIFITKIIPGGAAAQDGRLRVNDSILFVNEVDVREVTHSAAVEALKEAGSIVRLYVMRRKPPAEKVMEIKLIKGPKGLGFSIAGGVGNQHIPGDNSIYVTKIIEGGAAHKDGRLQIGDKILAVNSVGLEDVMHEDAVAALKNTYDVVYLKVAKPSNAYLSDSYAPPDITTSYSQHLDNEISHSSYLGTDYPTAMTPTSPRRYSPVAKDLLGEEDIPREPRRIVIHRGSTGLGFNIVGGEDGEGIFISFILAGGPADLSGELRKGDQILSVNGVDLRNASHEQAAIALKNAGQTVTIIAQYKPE
Sequence of GST-KIAA0147 PDZ domain 1 (Homo sapiens (Human)), Q14160 (Q14160 other isoform, or with tags, fused parts or gaps): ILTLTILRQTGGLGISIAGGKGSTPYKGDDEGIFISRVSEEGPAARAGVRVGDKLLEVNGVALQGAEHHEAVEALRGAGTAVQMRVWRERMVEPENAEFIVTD

Regarding VISKATPALPTVSISSSAEV (modifications not checked) [Clasp-1], the Classification in assay [1], in [2], in assay [3] and in assay [4] was 1 A450 class each time.
As for ENLELPVNPSSVVSERISSV (modifications not checked) [serotonin receptor 5-HT-2C], the Classification in assay [5] and in [6] was 1 A450 class in each case.
For QQYQQRQSVIFHKRAPEQAL (modifications not checked) [muscarinic Ach receptor M4], the Classification in [1], in assay [2], in assay [7] and in assay [4] was 1 A450 class each time.
Consider IVFIIHSFLSAKVTRLGLLA (modifications not checked) [alpha-1-syntrophin], for which the Classification in [1] is 1 A450 class.
On to SYPTPRPYPKPAPSSGKDYV (modifications not checked) [claudin 1], for which the Classification in assay [8] and in [6] was 1 A450 class in each case.
In the case of GGEDFKTTNPSKQFDKNAYV (modifications not checked) [claudin 10], the Classification in [9] and in assay [10] was 1 A450 class throughout.
Regarding KDSRPSFVGSSSGHTSTTL (modifications not checked) [CDw128B], the Classification in assay [1] is 5 A450 class; in assay [11], 3 A450 class; in assay [4], 5 A450 class; in assay [12] it was 2 A450 class.
Consider PYQSQGFSTEEDEDEQVSAV (modifications not checked) [RA-GEF (ras/rap1A-assoc-GEF)], for which the Classification in assay [13] was found to be 4 A450 class; in assay [14], 2 A450 class; in assay [15], 1 A450 class.
RPMESNPDTEGAQGETEDVL (modifications not checked) [parathyroid hormone receptor 2]: the Classification in assay [16] and in assay [7] was 1 A450 class in each case.
In [3], DGGARTEDEVQSYPSKHDYV (modifications not checked) [claudin 18] registered a Classification of 1 A450 class.
Turning to SPQPDSTDNDDYDDISAA (modifications not checked) [CD6], the Classification in assay [1] and in assay [4] was 1 A450 class in each case.
SSPTYRALLLQGPSQSSSEA (modifications not checked) [GAIP (G-alpha interacting protein) RGS 19] came in with a Classification in assay [17] of 1 A450 class.
As to HPTDITGLPNLSDPSVSTVV (modifications not checked) [NMDA R2C], the Classification stood at 2 A450 class in [18]; 1 A450 class in assay [13]; 1 A450 class in assay [9]; 1 A450 class in [19]; 1 A450 class in assay [14].
KAGYRAPRSYPKSNSSKEYV (modifications not checked) [claudin 7] gave a Classification in [3] of 4 A450 class.
Turning to RDSFHRSSFRKAETQLSQGS (modifications not checked) [Clasp-5], the Classification in assay [1], in assay [11], in [4] and in assay [20] was 1 A450 class throughout.
Consider GPDGIITVNDFTQNPRVQLE (modifications not checked) [ropporin], for which the Classification in [21] was determined as 1 A450 class.
As to VDPNSPAAKKKYVSYNNLVI (modifications not checked) [GLUR7 (metabotropic glutamate receptor)], the Classification in assay [22] worked out at 1 A450 class; in assay [10], 1 A450 class; in assay [16] it was 2 A450 class.
The molecule LGYSIPSRSGASGLDKRDYV (modifications not checked) [claudin 9] returned a Classification in assay [3] of 1 A450 class.
Turning to PRLKRMQQFEDLEDEIPQFV (modifications not checked) [RhoGAP 1 (PTPL1-associated)], the Classification in assay [23] was 2 A450 class.
For KPQIAALKEETEEEVQDTRL (modifications not checked) [CFTCR (cystic fibrosis transmembrane conductance regulator)], the figures for the Classification in [1], in [11] and in assay [4] were 2 A450 class, 1 A450 class and 1 A450 class, respectively.
ESKSFTRSTVDTMAQKTQAV (modifications not checked) [C5 Anaphylatoxin receptor]: in assay [23], the Classification was 1 A450 class.
For the molecule LLNVLQRQELGDGLDDEIAV (modifications not checked) [CAPON (carboxyl-terminal PDZ ligand of neuronal nitric oxide synthase) mRNA], the Classification in assay [1], in assay [2], in [23], in assay [16], in [7] and in [4] was 1 A450 class each time.
Turning to NSYVRDDAIFIKAIVDLTGL (modifications not checked) [TRAF2], the results for the Classification in [1], in assay [24] and in assay [4] were 4 A450 class, 1 A450 class and 2 A450 class, respectively.
